Laboratory results taken from patent US20210107998A1 (Boehringer Ingelheim, published 2021).

Assays:
[1] = target: Recombinant human BAFF trimer (Boehringer Ingelheim Pharmaceuticals, Inc.) (human, UniProt Q9Y275 134-285, limits assumed); assay: cell-based or functional assay
[2] = target: Recombinant human BAFF 60mer (Boehringer Ingelheim Pharmaceuticals, Inc.) (human, UniProt Q9Y275 134-285, limits assumed); assay: cell-based or functional assay
cynomolgus IL-23 [3] = target: T1, cynomolgus IL-23 (cynomolgus, UniProt H6WS56 20-189); assay: SPR (ProteOn XPR36), compound captured on goat anti-human IgG Fc, antigen injected
Experimental: (§1) SPR experiments were performed on a ProteOn XPR36 instrument (Bio Rad). A GLM chip was preconditioned with sequential injections of 60 sec of 0.5% SDS, 50 mM NaOH, and 100 mM HCl at a flow rate of 30 μl/min both vertical and horizontal directions.
(§2) The preconditioned GLM chip was then activated by an injection of EDC (76.7 mg/ml) and sulfo-NHS (21.7 mg/ml) mixture with ratio of 1:1 in 6 horizontal channels. Goat-anti-human IgG (GAHA) Fc gamma (Invitrogen) at a concentration of 30 μg/ml in 10 mM, pH 5.0 sodium acetate buffer was immobilized to 8,000 resonance units on the activated GLM chip in 6 horizontal channels. The chip was finally deactivated with 1 M ethanolamine HCl in 6 horizontal channels. The prepared GAHA chip was rotated to vertical direction to capture test compounds, over 5 vertical channels and the last channel was used as a column reference. The captured chip was then rotated again to the horizontal direction for binding. […] The dissociation was allowed for 2 hour. The GAHA surface was regenerated using short pulse injection (18 seconds) of 0.85% phosphoric acid (Bio Rad) at a flow rate of 100 μl/min both horizontal and vertical directions after 10 min association and 2 hr dissociation. The regenerated GAHA was ready for another binding cycle.

human BAFF [4] = target: T2, human BAFF (human, UniProt Q9Y275 134-285, limits assumed); assay: as above
T2 construct: also called hu BAFF; hBAFF
Experimental: as §1, §2

cynomolgus BAFF = target: T3, cynomolgus BAFF (cynomolgus, UniProt A0A2K5V2X4 134-285); assay: as above
T3 construct: construct not described
Experimental: as §1, §2

[5] = target: T4, Linked human IL-23 (Boehringer Ingelheim Pharmaceuticals, Inc.) (human, UniProt P29460 23-328); assay: as above
T4 sequence 1: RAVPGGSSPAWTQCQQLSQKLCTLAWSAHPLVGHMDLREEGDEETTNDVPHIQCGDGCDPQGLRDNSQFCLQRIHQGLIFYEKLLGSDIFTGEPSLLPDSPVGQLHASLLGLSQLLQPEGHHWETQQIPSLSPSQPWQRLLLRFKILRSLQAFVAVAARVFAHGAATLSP
T4 sequence 2: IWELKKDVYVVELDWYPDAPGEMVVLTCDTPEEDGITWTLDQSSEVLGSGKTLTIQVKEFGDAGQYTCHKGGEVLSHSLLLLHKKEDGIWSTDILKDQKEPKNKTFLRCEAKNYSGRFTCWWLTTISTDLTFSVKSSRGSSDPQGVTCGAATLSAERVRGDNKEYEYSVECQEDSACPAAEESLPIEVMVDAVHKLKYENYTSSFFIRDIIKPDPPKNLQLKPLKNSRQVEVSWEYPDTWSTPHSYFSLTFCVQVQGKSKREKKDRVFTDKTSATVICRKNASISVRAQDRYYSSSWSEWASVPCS
Experimental: as §1, §2

human BAFF [6] = target: T2, human BAFF; assay: BLI (Octet RED96, streptavidin tips), compound incubated 48 h at 37 C in whole blood vs kinetic buffer
Experimental: (§3) A whole blood interference assay was developed on an Octet RED96 to detect the effects of non-specific binding or off-target binding for compounds in the presence of whole blood (WB). The compound solutions in whole blood and 1× kinetic running buffer (1×kb) were incubated at a temperature of 37° C. for 48 hours. Kinetic measurements for the incubated compound samples were performed with an Octet RED96 equipped with streptavidin (SA) biosensor tips (ForteBio, Menlo Park, Calif.) at 27° C. The ratio of the on-rates/binding signals in buffer and whole blood were reported. A ratio <2 was considered to show no interference.

Recombinant human IL-23 [7] = target: T5, Recombinant human IL-23 (human, UniProt P29460 23-328); assay: as above
T5 construct: also called hu IL23
T5 sequence 1: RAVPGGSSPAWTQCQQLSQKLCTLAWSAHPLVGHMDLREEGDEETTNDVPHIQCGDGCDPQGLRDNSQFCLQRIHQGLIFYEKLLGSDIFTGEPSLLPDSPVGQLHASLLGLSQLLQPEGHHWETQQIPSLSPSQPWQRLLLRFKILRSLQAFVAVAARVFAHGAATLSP
T5 sequence 2: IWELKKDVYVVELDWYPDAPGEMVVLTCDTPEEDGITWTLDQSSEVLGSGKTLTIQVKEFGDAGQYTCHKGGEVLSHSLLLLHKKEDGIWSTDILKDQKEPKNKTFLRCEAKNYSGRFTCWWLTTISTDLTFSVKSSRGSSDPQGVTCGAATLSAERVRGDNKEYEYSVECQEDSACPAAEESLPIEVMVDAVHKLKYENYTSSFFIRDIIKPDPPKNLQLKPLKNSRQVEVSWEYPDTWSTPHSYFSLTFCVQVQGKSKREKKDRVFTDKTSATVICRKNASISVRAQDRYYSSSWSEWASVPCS
Experimental: as §3

Recombinant human IL-23 [8] = target: T5, Recombinant human IL-23; assay: cell-based or functional assay
cynomolgus IL-23 [9] = target: T1, cynomolgus IL-23; assay: cell-based or functional assay
Recombinant human IL-23 [10] = target: T5, Recombinant human IL-23; assay: cell-based or functional assay; remark: listed apart in the source

Row | Binder | IC50, NFkB luciferase reporter, human BAFFR-CHO cells [1] [nM] | IC90, NFkB luciferase reporter, human BAFFR-CHO cells [1] [nM] | IC50, NFkB luciferase reporter, human BAFFR-CHO cells [2] [nM] | IC90, NFkB luciferase reporter, human BAFFR-CHO cells [2] [nM] | Kd (cynomolgus IL-23 [3]) [nM] | Kd (human BAFF [4]) [nM] | Kd (cynomolgus BAFF) [nM] | Kd [5] [nM] | Ratio of binding signal in WB/kinetic buffer (human BAFF [6]) | Ratio of binding signal in WB/kinetic buffer (Recombinant human IL-23 [7]) | IC50, STAT3-luciferase reporter in DB lymphoblast B cells (Recombinant human IL-23 [8]) [nM] | IC90, STAT3-luciferase reporter in DB lymphoblast B cells (Recombinant human IL-23 [8]) [nM] | IC50, IL-23-induced mouse IL-17 release from mouse splenocytes (cynomolgus IL-23 [9]) [nM] | IC90, IL-23-induced mouse IL-17 release from mouse splenocytes (cynomolgus IL-23 [9]) [nM] | IC50, IL-23-induced mouse IL-17 release from mouse splenocytes (Recombinant human IL-23 [10]) [nM] | IC90, IL-23-induced mouse IL-17 release from mouse splenocytes (Recombinant human IL-23 [10]) [nM]
1 | Compound F (bispecific antibody, human IgG4 S228P, kappa, Large chain: IL23A(1) VL - BAFF(1) VH - LGGGSG - IgG4-Pro-YTE; small chain: BAFF(1) VL - IL23A(1) VH - LGGGSG - CL) chain 1: DIQMTQSPSSLSASVGDRVTITCKASRDVAIAVAWYQQKPGKVPKLLIYWASTRHTGVPSRFSGSGSRTDFTLTISSLQPEDVADYFCHQYSSYPFTFGSGTKLEIKGGGSGGGGQVQLQQSGAEVKKPGSSVRVSCKASGGTFNNNAINWVRQAPGQGLEWMGGIIPMFGTAKYSQNFQGRVAITADESTGTASMELSSLRSEDTAVYYCARSRDLLLFPHHALSPWGRGTMVTVSSLGGGSGASTKGPSVFPLAPCSRSTSESTAALGCLVKDYFPEPVTVSWNSGALTSGVHTFPAVLQSSGLYSLSSVVTVPSSSLGTKTYTCNVDHKPSNTKVDKRVESKYGPPCPPCPAPEFLGGPSVFLFPPKPKDTLYITREPEVTCVVVDVSQEDPEVQFNWYVDGVEVHNAKTKPREEQFNSTYRVVSVLTVLHQDWLNGKEYKCKVSNKGLPSSIEKTISKAKGQPREPQVYTLPPSQEEMTKNQVSLTCLVKGFYPSDIAVEWESNGQPENNYKTTPPVLDSDGSFFLYSRLTVDKSRWQEGNVFSCSVMHEALHNHYTQKSLSLSLG chain 2: SSELTQDPAVSVALGQTVRVTCQGDSLRSYYASWYQQKPGQAPVLVIYGKNNRPSGIPDRFSGSSSGNTASLTITGAQAEDEADYYCSSRDSSGNHWVFGGGTELTVLGGGSGGGGQVQLVQSGAEVKKPGSSVKVSCKASGYTFTDQTIHWMRQAPGQGLEWIGYIYPRDDSPKYNENFKGKVTITADKSTSTAYMELSSLRSEDTAVYYCAIPDRSGYAWFIYWGQGTLVTVSSLGGGSGRTVAAPSVFIFPPSDEQLKSGTASVVCLLNNFYPREAKVQWKVDNALQSGNSQESVTEQDSKDSTYSLSSTLTLSKADYEKHKVYACEVTHQGLSSPVTKSFNRGEC | 0.072 | 0.293 | 1.3 | 7.39 | < 0.015 | < 0.015 | < 0.015 | < 0.015 | 1 | 1.2 |  |  |  |  |  | 
2 | Compound C (bispecific antibody, human IgG1, kappa, L234A L235A, Tetravalent format) chain 1: DIQMTQSPSSLSASVGDRVTITCKASRDVAIAVAWYQQKPGKVPKLLIYWASTRHTGVPSRFSGSGSRTDFTLTISSLQPEDVADYFCHQYSSYPFTFGSGTKLEIKGGGSGGGGQVQLVQSGAEVKKPGASVKVSCKASGYSFSTFFIHWVRQRPGQGLEWIGRIDPNSGATKYNEKFESKVTLTRDTSISTAYMELSRLRSDDTAVYYCARGEDLLIRTDALDYWGQGTSVTVSSLGGGSGASTKGPSVFPLAPSSKSTSGGTAALGCLVKDYFPEPVTVSWNSGALTSGVHTFPAVLQSSGLYSLSSVVTVPSSSLGTQTYICNVNHKPSNTKVDKRVEPKSCDKTHTCPPCPAPEAAGGPSVFLFPPKPKDTLYITREPEVTCVVVDVSHEDPEVKFNWYVDGVEVHNAKTKPREEQYNSTYRVVSVLTVLHQDWLNGKEYKCKVSNKALPAPIEKTISKAKGQPREPQVYTLPPSREEMTKNQVSLTCLVKGFYPSDIAVEWESNGQPENNYKTTPPVLDSDGSFFLYSKLTVDKSRWQQGNVFSCSVMHEALHNHYTQKSLSLSPG chain 2: DIQMTQSPSSLSASVGDRVSITCKASQNAGIDVAWFQQKPGKAPKLLIYSKSNRYTGVPSRFSGSGSGTDFTLTISSLQPEDFADYYCLQYRSYPRTFGGGTKLEIKGGGSGGGGQVQLVQSGAEVKKPGSSVKVSCKASGYTFTDQTIHWMRQAPGQGLEWIGYIYPRDDSPKYNENFKGKVTITADKSTSTAYMELSSLRSEDTAVYYCAIPDRSGYAWFIYWGQGTLVTVSSLGGGSGRTVAAPSVFIFPPSDEQLKSGTASVVCLLNNFYPREAKVQWKVDNALQSGNSQESVTEQDSKDSTYSLSSTLTLSKADYEKHKVYACEVTHQGLSSPVTKSFNRGEC | 0.035 | 0.11 | 0.006 | 0.014 | < 0.015 | < 0.015 | < 0.015 | < 0.015 | 1.1 | 1.3 | 0.189 | 2.33 | 0.11 | 0.88 | 0.133 | 0.761
3 | Compound E (bispecific antibody, human IgG1, kappa, L234A L235A) chain 1: SSELTQDPAVSVALGQTVRVTCQGDSLRSYYASWYQQKPGQAPVLVIYGKNNRPSGIPDRFSGSSSGNTASLTITGAQAEDEADYYCSSRDSSGNHWVFGGGTELTVLGGGSGGGGQVQLVQSGAEVKKPGSSVKVSCKASGYTFTDQTIHWMRQAPGQGLEWIGYIYPRDDSPKYNENFKGKVTITADKSTSTAYMELSSLRSEDTAVYYCAIPDRSGYAWFIYWGQGTLVTVSSLGGGSGASTKGPSVFPLAPSSKSTSGGTAALGCLVKDYFPEPVTVSWNSGALTSGVHTFPAVLQSSGLYSLSSVVTVPSSSLGTQTYICNVNHKPSNTKVDKRVEPKSCDKTHTCPPCPAPEAAGGPSVFLFPPKPKDTLYITREPEVTCVVVDVSHEDPEVKFNWYVDGVEVHNAKTKPREEQYNSTYRVVSVLTVLHQDWLNGKEYKCKVSNKALPAPIEKTISKAKGQPREPQVYTLPPSREEMTKNQVSLTCLVKGFYPSDIAVEWESNGQPENNYKTTPPVLDSDGSFFLYSKLTVDKSRWQQGNVFSCSVMHEALHNHYTQKSLSLSPG chain 2: DIQMTQSPSSLSASVGDRVTITCKASRDVAIAVAWYQQKPGKVPKLLIYWASTRHTGVPSRFSGSGSRTDFTLTISSLQPEDVADYFCHQYSSYPFTFGSGTKLEIKGGGSGGGGQVQLQQSGAEVKKPGSSVRVSCKASGGTFNNNAINWVRQAPGQGLEWMGGIIPMFGTAKYSQNFQGRVAITADESTGTASMELSSLRSEDTAVYYCARSRDLLLFPHHALSPWGRGTMVTVSSLGGGSGRTVAAPSVFIFPPSDEQLKSGTASVVCLLNNFYPREAKVQWKVDNALQSGNSQESVTEQDSKDSTYSLSSTLTLSKADYEKHKVYACEVTHQGLSSPVTKSFNRGEC |  |  |  |  | < 0.015 | < 0.015 | < 0.015 | < 0.015 | 1 | 1.1 |  |  |  |  |  | 
